Test results: US20050181450A1, “Novel inositol 1,4,5-trisphosphate (IP3) receptor-binding protein and an IP3 indicator” (priority 2002, published 2005)

Tests used:
[1] = target: T1, R441Q mutant of GST-IbIIa (Mus musculus, UniProt P11881, R441Q); test: GST pulldown with R441Q; assay type: binding; conditions: IRBIT in high salt extract; compared with GST-IbIIa
T1 construct: GST-IbIIa (amino acids 224-604 of mouse IP3R1) and its site-directed mutants K508A and R441Q; made in house
Description: (§1) The cDNAs encoding the full-length and N-terminal region (amino acids 1-104) of IRBIT were subcloned into the Escherichia coli hexahistidine (His) fusion vector pET-23a(+) (Novagen) to generate IRBIT-His and IRBIT(1-104)-His expression vectors, respectively. The same cDNAs were subcloned into the GST fusion vector pGEX-4T-1 (Amersham Pharmacia Biotech) to generate GST-IRBIT and GST-IRBIT(1-104) expression vectors, respectively. The cDNA fragments encoding the amino acids 1-225, 1-343, 341-923, 600-1248, 916-1581 and 1553-1943 of the amino acid sequence (SEQ ID NO: 7) of mouse IP3R1 were inserted into pGEX-KG to generate GST-Ia, GST-Iab, GST-IIab, GST-IIbIIIa, GST-IIIab and GST-IV expression vectors, respectively. The amino acids 1593-2217 of mouse IP3R1 were inserted into pGEX-4T-1 to obtain GST-IV-Va expression vector. These fusion proteins were expressed in Escherichia coli. GST-EL was expressed in Sf9 cells as described above. […]
(§2) For the determination of the IRBIT binding region and the critical amino acid residue of IP3R1, the diluted high salt extract was subjected to pulldown assay as described above with 100 pmol of GST, GST-EL, GST-Ia, GST-Iab, GST-IbIIa, GST-IIab, GST-IIbIIIa, GST-IIIab, GST-IV, GST-IV-Va, K508A or R441Q, and analyzed by Western blotting with anti-IRBIT antibody.

[2] = target: T2, type II phosphatidylinositol phosphate kinase α (Homo sapiens, UniProt P48426); test: Co-immunoprecipitation in Cos-7 cells with Myc-PIPKII α; assay type: binding; conditions: overexpressing Cos-7 cells
T2 construct: expressed in transfected cells; host or cells: Cos-7
T2 sequence (P48426 1-406): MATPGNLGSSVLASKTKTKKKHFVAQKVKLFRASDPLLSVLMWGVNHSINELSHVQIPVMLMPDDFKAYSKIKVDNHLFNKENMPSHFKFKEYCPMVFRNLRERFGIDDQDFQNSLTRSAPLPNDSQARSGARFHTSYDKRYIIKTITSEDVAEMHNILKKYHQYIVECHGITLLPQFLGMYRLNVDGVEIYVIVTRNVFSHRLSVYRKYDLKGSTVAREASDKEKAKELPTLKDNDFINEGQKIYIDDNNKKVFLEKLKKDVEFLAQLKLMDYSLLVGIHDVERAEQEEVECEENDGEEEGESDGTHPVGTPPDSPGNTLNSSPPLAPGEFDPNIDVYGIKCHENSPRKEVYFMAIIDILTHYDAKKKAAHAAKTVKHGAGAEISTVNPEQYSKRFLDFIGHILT
Experimental: (§3) (A and B) IRBIT was transfected into Cos-7 cells with Myc-tagged type II phosphatidylinositol phosphate kinase α, β or γ (PIPKII α, β or γ). After two days, cells were lysed in lysis buffer, followed by centrifugation (100,000×g, 30 min). The supernatants were incubated with 3 μg of anti-IRBIT antibody, rabbit IgG, mouse anti-Myc antibody, or mouse IgG for 1 h at 4° C. After adding 5 μl of Protein G beads and another 1-h incubation, the beads were washed five times with lysis buffer and analyzed by Western blotting with anti-IRBIT antibody or HRP conjugated anti-Myc antibody. Immunoprecipitation of Myc-PIPKII α, β or γ with anti-Myc antibody co-precipitated IRBIT (A). In the reciprocal experiments, immunoprecipitation of IRBIT with anti-IRBIT antibody precipitated Myc-PIPKII α, β or γ.
as §3, with “IRBIT” for “(A and B) IRBIT”, “antibody.” for “antibody. Immunoprecipitation of Myc-PIPKII α, β or γ with anti-Myc antibody co-precipitated IRBIT (A). In the reciprocal experiments, immunoprecipitation of IRBIT with anti-IRBIT antibody precipitated Myc-PIPKII α, β or γ.”

[3] = system: sodium bicarbonate cotransporter; test: Immunoprecipitation from mouse cerebellum and mass spectrometry; assay type: binding; conditions: mouse cerebellar cytosol or microsome detergent extract
Experimental: (§4) Mouse cerebellar cytosol fraction or detergent extract of microsome fraction was immunoprecipitated with 50 μg of anti-IRBIT antibody or rabbit IgG. Immunoprecipitates were separated by 10% SDS-PAGE gel, and stained with Coomassie Brilliant Blue. The bands were excised from the gel and digested with lysyl endopeptidase and analyzed with mass spectrometry. Arrows indicate the bands of sodium bicarbonate cotransporter.
as §4, with “Blue (FIG. 13).” for “Blue.”

[4] = S-adenosylhomocysteine hydrolase activity in the hydrolytic direction; assay type: biochemical; conditions: recombinant protein expressed in Escherichia coli; hydrolysis direction
Experimental: The S-adenosylhomocysteine hydrolase activity in the hydrolytic direction of recombinant IRBIT-His (open circle), GST-IRBIT (triangle), GST (square), and S-adenosylhomocysteine hydrolase (closed circle) were measured according to the known method (43). Results are shown as the mean±standard deviation from three independent experimental results.
To assay S-adenosylhomocysteine hydrolase activity in the hydrolytic direction, the color developed by the reaction between the product (Homocysteine) and 5,5′-dithiobis (2-nitrobenzoic acid) (Sigma) was measured spectroscopically using the purified IRBIT-His (3.0 μg), GST-IRBIT (4.3 μg), GST (1.3 μg) and rabbit S-adenosylhomocysteine hydrolase (Sigma) (2.4 μg), according to the known method (43). Absorbance at 412 nm was measured 0, 5, 20 and 60 minutes later using a DU 640 spectrophotometer (Beckman). Results are shown as the mean±standard deviation from three independent experiments (FIG. 2).

[5] = target: T3, GST-Iab (mouse IP3R1 amino acids 1-343) (Mus musculus, UniProt P11881); test: GST pulldown with GST-Iab; assay type: binding; conditions: IRBIT in high salt extract
T3 construct: made in house; host or cells: Escherichia coli
Description: as §1, §2

[6] = target: T4, K508A mutant of GST-IbIIa (Mus musculus, UniProt P11881, K508A); test: GST pulldown with K508A; assay type: binding; conditions: IRBIT in high salt extract
T4 construct: GST-IbIIa (amino acids 224-604 of mouse IP3R1) and its site-directed mutants K508A and R441Q; made in house
Description: as §1, §2

T4 sequence (P11881 224-604 K508A): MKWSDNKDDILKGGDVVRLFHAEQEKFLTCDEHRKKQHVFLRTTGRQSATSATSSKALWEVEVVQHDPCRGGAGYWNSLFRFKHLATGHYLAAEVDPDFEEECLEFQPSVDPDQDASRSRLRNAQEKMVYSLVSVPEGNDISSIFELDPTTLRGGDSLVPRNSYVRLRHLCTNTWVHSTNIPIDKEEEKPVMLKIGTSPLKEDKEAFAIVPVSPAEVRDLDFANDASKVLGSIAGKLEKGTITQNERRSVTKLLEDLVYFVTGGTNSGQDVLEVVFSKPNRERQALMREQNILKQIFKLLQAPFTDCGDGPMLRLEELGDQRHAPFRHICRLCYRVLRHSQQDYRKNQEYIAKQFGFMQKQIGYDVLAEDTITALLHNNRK
T3 sequence (P11881 1-343): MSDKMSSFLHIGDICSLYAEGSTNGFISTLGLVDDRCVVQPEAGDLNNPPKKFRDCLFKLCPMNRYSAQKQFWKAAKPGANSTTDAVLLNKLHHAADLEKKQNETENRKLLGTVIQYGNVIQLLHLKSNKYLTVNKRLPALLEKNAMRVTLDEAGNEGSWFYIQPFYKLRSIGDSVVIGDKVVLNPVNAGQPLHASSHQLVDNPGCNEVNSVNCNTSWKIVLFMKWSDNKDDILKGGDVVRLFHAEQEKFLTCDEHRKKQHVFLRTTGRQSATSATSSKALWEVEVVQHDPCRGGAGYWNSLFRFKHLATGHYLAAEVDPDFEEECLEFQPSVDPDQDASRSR
T1 sequence (P11881 224-604 R441Q): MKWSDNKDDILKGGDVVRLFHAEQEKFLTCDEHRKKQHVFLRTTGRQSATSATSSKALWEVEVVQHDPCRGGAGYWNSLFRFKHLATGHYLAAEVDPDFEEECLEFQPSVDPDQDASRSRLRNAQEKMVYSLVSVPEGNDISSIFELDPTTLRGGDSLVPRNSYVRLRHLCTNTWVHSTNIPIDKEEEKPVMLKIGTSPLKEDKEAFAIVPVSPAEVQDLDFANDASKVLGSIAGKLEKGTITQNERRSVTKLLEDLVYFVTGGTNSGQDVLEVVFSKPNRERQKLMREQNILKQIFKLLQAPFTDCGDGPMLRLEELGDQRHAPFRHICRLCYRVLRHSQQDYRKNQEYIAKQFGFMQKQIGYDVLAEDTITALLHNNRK

B1: IRBIT: novel IP3 receptor-binding protein of 530 amino acids, SEQ ID NO: 1 (protein, listed as Mus musculus)
chain: MSMPDAMPLPGVGEELKQAKEIEDAEKYSFMATVTKAPKKQIQFADDMQEFTKFPTKTGRRSLSRSISQSSTDSYSSAASYTDSSDDEVSPREKQQTNSKGSSNFCVKNIKQAEFGRREIEIAEQDMSALISLRKRAQGEKPLAGAKIVGCTHITAQTAVLIETLCALGAQCRWSACNIYSTQNEVAAALAEAGVAVFAWKGESEDDFWWCIDRCVNMDGWQANMILDDGGDLTHWVYKKYPNVFKKIRGIVEESVTGVHRLYQLSKAGKLCVPAMNVNDSVTKQKFDNLYCCRESILDGLKRTTDVMFGGKQVVVCGYGEVGKGCCAALKALGAIVYITEIDPICALQACMDGFRVVKLNEVIRQVDVVITCTGNKNVVTREHLDRMKNSCIVCNMGHSNTEIDVTSLRTPELTWERVRSQVDHVIWPDGKRVVLLAEGRLLNLSCSTVPTFVLSITATTQALALIELYNAPEGRYKQDVYLLPKKMDEYVASLHLPSFDAHLTELTDDQAKYLGLNKNGPFKPNYYRY
binding to R441Q [1]: to the same extent
interaction with PIPKII α [2]: interacted
interaction with sodium bicarbonate cotransporter [3]: interacted
S-adenosylhomocysteine hydrolase activity [4]: no S-adenosylhomocysteine hydrolase activity
interaction with GST-Iab [5]: did not interact
binding to K508A [6]: did not bind
